Experimental data from patent publication US20190194317A1 (FARON PHARMACEUTICALS, published 2019).

T1: CLEVER-1 coated on the ELISA plate (competition ELISA, Examples 5 and 10) (human, UniProt Q9NY15 26-1027, limits assumed)
T1 construct: Coated at 1 ug/ml in PBS; also called human Clever-1
T1 sequence (looked up): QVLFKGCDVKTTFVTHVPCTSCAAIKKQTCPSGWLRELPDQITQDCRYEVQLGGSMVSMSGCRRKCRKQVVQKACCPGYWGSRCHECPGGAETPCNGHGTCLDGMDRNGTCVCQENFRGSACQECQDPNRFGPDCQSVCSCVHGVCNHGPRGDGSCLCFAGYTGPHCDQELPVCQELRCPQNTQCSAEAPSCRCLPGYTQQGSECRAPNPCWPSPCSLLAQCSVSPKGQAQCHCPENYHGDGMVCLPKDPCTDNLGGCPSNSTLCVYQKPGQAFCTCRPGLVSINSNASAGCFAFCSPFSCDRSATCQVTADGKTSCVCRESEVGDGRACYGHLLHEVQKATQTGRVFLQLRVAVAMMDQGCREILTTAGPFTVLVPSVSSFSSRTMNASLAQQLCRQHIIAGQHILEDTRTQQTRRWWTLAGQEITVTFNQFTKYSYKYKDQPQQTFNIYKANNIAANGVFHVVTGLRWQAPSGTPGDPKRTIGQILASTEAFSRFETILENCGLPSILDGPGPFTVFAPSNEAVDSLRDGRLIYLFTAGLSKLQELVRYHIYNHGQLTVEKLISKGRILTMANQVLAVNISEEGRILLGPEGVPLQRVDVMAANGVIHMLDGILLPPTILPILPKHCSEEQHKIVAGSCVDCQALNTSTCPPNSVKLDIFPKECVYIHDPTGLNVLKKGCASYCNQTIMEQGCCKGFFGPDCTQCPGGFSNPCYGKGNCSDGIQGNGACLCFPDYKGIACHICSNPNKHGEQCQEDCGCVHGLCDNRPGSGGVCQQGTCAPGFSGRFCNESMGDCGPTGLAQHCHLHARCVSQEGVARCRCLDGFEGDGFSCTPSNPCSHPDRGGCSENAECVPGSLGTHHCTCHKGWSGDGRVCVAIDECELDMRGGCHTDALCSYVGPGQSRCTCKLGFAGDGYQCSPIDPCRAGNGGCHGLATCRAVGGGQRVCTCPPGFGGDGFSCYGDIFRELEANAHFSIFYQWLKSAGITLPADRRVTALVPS


target: T1, CLEVER-1 coated on the ELISA plate …; assay: competition ELISA on coated CLEVER-1 against biotinylated mouse 3-372
Method: These were incubated for 1 hour at room temperature on a 96 well Immulon maxisorp plate (Fisher Cat. No. DIS-971-030J) precoated with 1 μg/ml CLEVER-1. […] The reaction was stopped with 3M HCl, absorbance read at 450 nm on a Dynex Technologies MRX TC II plate reader and the binding curves plotted. IC50 values for each antibody were calculated and these were normalized to the IC50 of the chimera which was included on each respective ELISA plate.

Binder	Relative IC50
Composite Human anti-CLEVER-1 antibody VH2/VK2 (antibody, human IgG4, V domains shown) VH: QVTLKESGPTLVKPTQTLTLTCSFSGFSLSTSGMGIGWIRQPSGKALEWLAHIWWDDDKRYNPALKSRLTISKDTSKNQVVLTMTNMDPVDTATYYCARHYGYDPYYAMDYWGQGTLVTVSS VL: QIVLTQSPGTLSLSPGERATMSCTASSSVSSSYLHWYQQKPGKAPKLCIYRTSNLASGVPSRFSGSGSGTDYTLTISSLQPEDFATYYCHQYHRSPPTFGQGTKLEIK	0.95 relative to the chimera on the same plate
Composite Human anti-CLEVER-1 antibody VH4/VK1 (antibody, human IgG4, V domains shown) VH: QVTLKESGPTLVKPTQTLTLTCTFSGFSLSTSGMGIGWIRQPPGKALEWLAHIWWDDDKRYNPALKSRLTISKDTSKNQVVLTMTNMDPVDTATYYCARHYGYDPYYAMDYWGQGTLVTVSS VL: QIVLTQSPGILSLSPGERATMSCTASSSVSSSYLHWYQQKPGKAPKLCIYRTSNLASGVPSRFSGSGSGTDYTLTISSLQAEDFATYYCHQYHRSPPTFGQGTKLEIK	1.86 relative to the chimera on the same plate
Composite Human anti-CLEVER-1 antibody VH1/VK5 (antibody, human IgG4, V domains shown) VH: QVTLKESGPTIVKPTQTLTLTCSFSGFSLNTSGMGIGWIRQPSGKALEWLAHIWWDDDKRYNPALKSRLTISKDTSKNQVVLTMTNMDPVDTATYYCARHYGYDPYYAMDYWGQGTSVTVSS VL: EIVLTQSPGTLSLSPGERATLSCTASSSVSSSYLHWYQQKPGKAPKLLIYRTSNLASGVPSRFSGSGSGTDYTLTISSLQPEDFATYYCHQYHRSPPTFGQGTKLEIK	1.13 relative to the chimera on the same plate
Composite Human anti-CLEVER-1 antibody VH1/VK4 (antibody, human IgG4, V domains shown) VH: QVTLKESGPTIVKPTQTLTLTCSFSGFSLNTSGMGIGWIRQPSGKALEWLAHIWWDDDKRYNPALKSRLTISKDTSKNQVVLTMTNMDPVDTATYYCARHYGYDPYYAMDYWGQGTSVTVSS VL: QIVLTQSPGILSLSPGERATMSCTASSSVSSSYLHWYQQKPGKAPKLLIYRTSNLASGVPSRFSGSGSGTDYTLTISSLQAEDFATYYCHQYHRSPPTFGQGTKLEIK	1.17 relative to the chimera on the same plate
Composite Human anti-CLEVER-1 antibody VH4/VK4 (antibody, human IgG4, V domains shown) VH: QVTLKESGPTLVKPTQTLTLTCTFSGFSLSTSGMGIGWIRQPPGKALEWLAHIWWDDDKRYNPALKSRLTISKDTSKNQVVLTMTNMDPVDTATYYCARHYGYDPYYAMDYWGQGTLVTVSS VL: QIVLTQSPGILSLSPGERATMSCTASSSVSSSYLHWYQQKPGKAPKLLIYRTSNLASGVPSRFSGSGSGTDYTLTISSLQAEDFATYYCHQYHRSPPTFGQGTKLEIK	1.2 relative to the chimera on the same plate
Composite Human anti-CLEVER-1 antibody VH2/VK1 (antibody, human IgG4, V domains shown) VH: QVTLKESGPTLVKPTQTLTLTCSFSGFSLSTSGMGIGWIRQPSGKALEWLAHIWWDDDKRYNPALKSRLTISKDTSKNQVVLTMTNMDPVDTATYYCARHYGYDPYYAMDYWGQGTLVTVSS VL: QIVLTQSPGILSLSPGERATMSCTASSSVSSSYLHWYQQKPGKAPKLCIYRTSNLASGVPSRFSGSGSGTDYTLTISSLQAEDFATYYCHQYHRSPPTFGQGTKLEIK	0.82 relative to the chimera on the same plate
Composite Human anti-CLEVER-1 antibody VH4/VK5 (antibody, human IgG4, V domains shown, Named as a potential lead) VH: QVTLKESGPTLVKPTQTLTLTCTFSGFSLSTSGMGIGWIRQPPGKALEWLAHIWWDDDKRYNPALKSRLTISKDTSKNQVVLTMTNMDPVDTATYYCARHYGYDPYYAMDYWGQGTLVTVSS VL: EIVLTQSPGTLSLSPGERATLSCTASSSVSSSYLHWYQQKPGKAPKLLIYRTSNLASGVPSRFSGSGSGTDYTLTISSLQPEDFATYYCHQYHRSPPTFGQGTKLEIK	0.46 relative to the chimera on the same plate
Composite Human anti-CLEVER-1 antibody VH3/VK1 (antibody, human IgG4, V domains shown) VH: QVTLKESGPTLVKPTQTLTLTCSFSGFSLSTSGMGIGWIRQPPGKALEWLAHIWWDDDKRYNPALKSRLTISKDTSKNQVVLTMTNMDPVDTATYYCARHYGYDPYYAMDYWGQGTLVTVSS VL: QIVLTQSPGILSLSPGERATMSCTASSSVSSSYLHWYQQKPGKAPKLCIYRTSNLASGVPSRFSGSGSGTDYTLTISSLQAEDFATYYCHQYHRSPPTFGQGTKLEIK	0.76 relative to the chimera on the same plate
Composite Human anti-CLEVER-1 antibody VH3/VK4 (antibody, human IgG4, V domains shown) VH: QVTLKESGPTLVKPTQTLTLTCSFSGFSLSTSGMGIGWIRQPPGKALEWLAHIWWDDDKRYNPALKSRLTISKDTSKNQVVLTMTNMDPVDTATYYCARHYGYDPYYAMDYWGQGTLVTVSS VL: QIVLTQSPGILSLSPGERATMSCTASSSVSSSYLHWYQQKPGKAPKLLIYRTSNLASGVPSRFSGSGSGTDYTLTISSLQAEDFATYYCHQYHRSPPTFGQGTKLEIK	0.47 relative to the chimera on the same plate
Composite Human anti-CLEVER-1 antibody VH2/VK4 (antibody, human IgG4, V domains shown) VH: QVTLKESGPTLVKPTQTLTLTCSFSGFSLSTSGMGIGWIRQPSGKALEWLAHIWWDDDKRYNPALKSRLTISKDTSKNQVVLTMTNMDPVDTATYYCARHYGYDPYYAMDYWGQGTLVTVSS VL: QIVLTQSPGILSLSPGERATMSCTASSSVSSSYLHWYQQKPGKAPKLLIYRTSNLASGVPSRFSGSGSGTDYTLTISSLQAEDFATYYCHQYHRSPPTFGQGTKLEIK	0.79 relative to the chimera on the same plate
Composite Human anti-CLEVER-1 antibody VH3/VK2 (antibody, human IgG4, V domains shown) VH: QVTLKESGPTLVKPTQTLTLTCSFSGFSLSTSGMGIGWIRQPPGKALEWLAHIWWDDDKRYNPALKSRLTISKDTSKNQVVLTMTNMDPVDTATYYCARHYGYDPYYAMDYWGQGTLVTVSS VL: QIVLTQSPGTLSLSPGERATMSCTASSSVSSSYLHWYQQKPGKAPKLCIYRTSNLASGVPSRFSGSGSGTDYTLTISSLQPEDFATYYCHQYHRSPPTFGQGTKLEIK	0.51 relative to the chimera on the same plate
Composite Human anti-CLEVER-1 antibody VH1/VK1 (antibody, human IgG4, V domains shown) VH: QVTLKESGPTIVKPTQTLTLTCSFSGFSLNTSGMGIGWIRQPSGKALEWLAHIWWDDDKRYNPALKSRLTISKDTSKNQVVLTMTNMDPVDTATYYCARHYGYDPYYAMDYWGQGTSVTVSS VL: QIVLTQSPGILSLSPGERATMSCTASSSVSSSYLHWYQQKPGKAPKLCIYRTSNLASGVPSRFSGSGSGTDYTLTISSLQAEDFATYYCHQYHRSPPTFGQGTKLEIK	0.84 relative to the chimera on the same plate
Composite Human anti-CLEVER-1 antibody VH1/VK3 (antibody, human IgG4, V domains shown) VH: QVTLKESGPTIVKPTQTLTLTCSFSGFSLNTSGMGIGWIRQPSGKALEWLAHIWWDDDKRYNPALKSRLTISKDTSKNQVVLTMTNMDPVDTATYYCARHYGYDPYYAMDYWGQGTSVTVSS VL: EIVLTQSPGTLSLSPGERATMSCTASSSVSSSYLHWYQQKPGKAPKLCIYRTSNLASGVPSRFSGSGSGTDYTLTISSLQPEDFATYYCHQYHRSPPTFGQGTKLEIK	1.63 relative to the chimera on the same plate
Composite Human anti-CLEVER-1 antibody VH1/VK2 (antibody, human IgG4, V domains shown) VH: QVTLKESGPTIVKPTQTLTLTCSFSGFSLNTSGMGIGWIRQPSGKALEWLAHIWWDDDKRYNPALKSRLTISKDTSKNQVVLTMTNMDPVDTATYYCARHYGYDPYYAMDYWGQGTSVTVSS VL: QIVLTQSPGTLSLSPGERATMSCTASSSVSSSYLHWYQQKPGKAPKLCIYRTSNLASGVPSRFSGSGSGTDYTLTISSLQPEDFATYYCHQYHRSPPTFGQGTKLEIK	1.37 relative to the chimera on the same plate
Composite Human anti-CLEVER-1 antibody VH2/VK5 (antibody, human IgG4, V domains shown, Named as a potential lead) VH: QVTLKESGPTLVKPTQTLTLTCSFSGFSLSTSGMGIGWIRQPSGKALEWLAHIWWDDDKRYNPALKSRLTISKDTSKNQVVLTMTNMDPVDTATYYCARHYGYDPYYAMDYWGQGTLVTVSS VL: EIVLTQSPGTLSLSPGERATLSCTASSSVSSSYLHWYQQKPGKAPKLLIYRTSNLASGVPSRFSGSGSGTDYTLTISSLQPEDFATYYCHQYHRSPPTFGQGTKLEIK	0.52 relative to the chimera on the same plate
Composite Human anti-CLEVER-1 antibody VH4/VK2 (antibody, human IgG4, V domains shown) VH: QVTLKESGPTLVKPTQTLTLTCTFSGFSLSTSGMGIGWIRQPPGKALEWLAHIWWDDDKRYNPALKSRLTISKDTSKNQVVLTMTNMDPVDTATYYCARHYGYDPYYAMDYWGQGTLVTVSS VL: QIVLTQSPGTLSLSPGERATMSCTASSSVSSSYLHWYQQKPGKAPKLCIYRTSNLASGVPSRFSGSGSGTDYTLTISSLQPEDFATYYCHQYHRSPPTFGQGTKLEIK	0.9 relative to the chimera on the same plate
Composite Human anti-CLEVER-1 antibody VH2/VK3 (antibody, human IgG4, V domains shown) VH: QVTLKESGPTLVKPTQTLTLTCSFSGFSLSTSGMGIGWIRQPSGKALEWLAHIWWDDDKRYNPALKSRLTISKDTSKNQVVLTMTNMDPVDTATYYCARHYGYDPYYAMDYWGQGTLVTVSS VL: EIVLTQSPGTLSLSPGERATMSCTASSSVSSSYLHWYQQKPGKAPKLCIYRTSNLASGVPSRFSGSGSGTDYTLTISSLQPEDFATYYCHQYHRSPPTFGQGTKLEIK	0.7 relative to the chimera on the same plate
